Results as given in US20110124565.

System: FVIII L99 (B domain deleted FVIII with R372A and Val374 replaced by a 99 amino acid Gly/Ser linker)

Substance: human activated Protein C
- remaining FVIII activity (FXa generation test) after addition of human APC with or without protein S: FVIII L99 could be inactivated by human APC with or without Protein S
